In patent publication US6492344B1, “Syndecan enhancer element and syndecan stimulation of cellular differentiation” (Biotie Therapies Corp., priority 1993, dated 2002):
Entries after “also recorded” stand apart in the source; their conditions may differ.

Experiments:
syndecan-1 mRNA = experiment: Syndecan-1 mRNA expression in MCA3D keratinocytes; format: cell-based; conditions: MCA3D mouse keratinocytes
3T3NIH cells = experiment: 125-IdU incorporation (DNA synthesis) assay in 3T3NIH cells; format: cell-based, mouse; conditions: pFiRE transfected 3T3NIH cells; 10 ng/ml growth factor (2 ng/ml TGF-β) or 5% FCS
Description: Effect of Various Growth Factors on Enhancer Activation in NIH3T3 Cells. Plasmid pFiRE was transfected into 3T3NIH cells as described, supra. The cells were starved in DMEM medium supplemented with 5% fetal calf serum to about 70% confluence. Fetal calf serum was then replaced with 2% carboxy-methyl-Sephadex eluted fetal calf serum (CMS) 12 hrs before adding the growth factors. Various growth factors in the same medium, 5% fetal calf serum (FCS) supplemented medium or a control containing the medium, without any added growth factors were incubated with the transfected cells for 2 days, and CAT activity was measured. The effect of 10 ng/ml of FGF-2, FGF-1, FGF-4, FGF-7 (KGF), EGF, IGF1, TGFα, IFNγ, and PDGF and 2 ng/ml TGF-β were tested. The human recombinant growth factors were purchased from Peprotech (FGF-1, -2, and -7), Boehringer (FGF-2) or from Calbiochem (PDGF) TGF-β was purchased from Sigma. The effect of the added growth factors and FCS on DNA synthesis was also tested by a 125-IdU incorporation assay. This cell proliferation assay was carried out by incubating cells for 4-6 hrs with 0.25 μCi/ml 5-[^125I]iodo-2′-deoxyuridine (IdU, Amersham), washed several times with PBS and solubilized in 1 M NaOH. Radioactivity was measured using a gamma counter (Wallac).

[1] = tested on: FGF-inducible Response Element (FiRE); experiment: pFiRE CAT reporter activation by growth factors in 3T3NIH cells; format: cell-based, mouse; conditions: pFiRE transfected 3T3NIH cells; 10 ng/ml growth factor (2 ng/ml TGF-β) or 5% FCS, 2 days
Description: Each of these plasmids was transiently transfected into 3T3NIH cells, using the calcium phosphate precipitation method (Chen and Okayama, Mol. Cell Biol. 7:2745-2752 (1987)) as follows. For transient transfections NIH3T3 cells were plated at equal density on six-well plates (Falcon) two days before transfection. Plasmid DNA was transfected into cells by calcium phosphate method (Chen and Okayama, Mol. Cell Biol. 7:2745-2752 (1987)). A β-galactosidase expressing plasmid (pSV-β-galactosidase, Promega) was co-transfected with CAT constructs to monitor transfection efficiencies. Three parallel transfections were used in every assay. […] CAT activities were measured by liquid scintillation and β-galactosidase activities spectrophotometrically at 420 nm as described by Vihinen et al., J. Biol. Chem 268:17261-17269 (1993)). […]
For the gene expression analysis the fragments of the syndecan-1 upstream region were subcloned from mouse genomic clones into the XbaI site of the pCATProm vector in which a mouse syndecan-1 promoter region (−1310 to +140) was fused to the CAT reporter gene (Vihinen et al., J. Biol. Chem. 271:12532-12541 (1996)). […] These constructs were then used to transient transfect NIH3T3 cells as described supra, and CAT activity was measured.
Effect of Various Growth Factors on Enhancer Activation in NIH3T3 Cells. […] Radioactivity was measured using a gamma counter (Wallac).

[2] = tested on: FGF-inducible Response Element (FiRE); experiment: FiRE / Syn Prom CAT reporter in MCA3D keratinocytes; format: cell-based; conditions: MCA3D mouse keratinocytes transfected with FiRE construct
Description: The cells used for proximal promoter constructs were 3T3 NIH, S115 (either hormone-treated or not) and nMuMG cells. For enhancer constructs we used 3T3 NIH cells grown in 2% CMS medium and MCA 3D cells grown in Ham's medium. 3T3 NIH cells were also used to test the effect of growth factors in 2% CMS medium with 10 ng/ml FGF-2 and 2ng/ml TGFβ-1. MCA 3D cells were used to test the effect of 10 ng/ml KGF.
FiRE is Induced Selectively by FGF-7 in Keratinocytes. The ability of FiRE to enhance transcription was tested in the mouse keratinocyte cell line MCA3D (Kuliz-Martin et al., Carcinogenesis 4:1367-1377 (1983)). MCA3D cells were transfected as described supra for mouse NIH3T3 cells. Following transfection, the cells were treated with fetal calf serum, PDGF, FGF-1, FGF-2, and FGF-7 as described supra for the NIH3T3 cells.

B1: FGF-7: Keratinocyte growth factor (FGF-7 or KGF) (protein, UniProt P21781 32-194, looked up)
Fibroblast growth factor 7: CNDMTPEQMATNVNCSSPERHTRSYDYMEGGDIRVRRLFCRTQWYLRIDKRGKVKGTQEMKNNYNIMEIRTVAVGIVAIKGVESEFYLAMNKEGKLYAKKECNEDCNFKELILENHYNTYASAKWTHNGGEMFVALNQKGIPVRGKKTKKEQKTAHFLPMAIT
syndecan-1 mRNA expression (syndecan-1 mRNA): strongly induced
DNA synthesis / cell proliferation (125-IdU incorporation) (3T3NIH cells): significant increase in DNA synthesis
FiRE enhancer activation (CAT reporter activity) [1]: did not activate the enhancer; also recorded: no significant enhancer activation; also recorded: no effect
FiRE activation [2]: strongly activated FiRE

B2: FGF-4: growth factor, FGF family member (protein, UniProt P08620 31-206, looked up)
Fibroblast growth factor 4: APTAPNGTLEAELERRWESLVALSLARLPVAAQPKEAAVQSGAGDYLLGIKRLRRLYCNVGIGFHLQALPDGRIGGAHADTRDSLLELSPVERGVVSIFGVASRFFVAMSSKGKLYGSPFFTDECTFKEILLPNNYNAYESYKYPGMFIALSKNGKTKKGNRVSPTMKVTHFLPRL
FiRE enhancer activation (CAT reporter activity) [1]: lower effect
